Measurements: patent US12552837B2, “Bicyclic peptide ligands with detectable moieties and uses thereof” (BicycleRD Limited, priority 2017, dated 2026)
Read-outs that look alike come from different tables or passages of the source. *1 amine or outer side, *2 acyl side, *3 side chain or, on linkers, in order; H or OH if unused. Where a SMILES comes first, the peptide text is derived from it. Bridges are numbered along the chain shown (N, C = ends). [ ]: non-standard residue; d: D form. The star is where a group is joined. DOTA = O=C(O)CN1CCN(CC(=O)O)CCN(CC(=O)*)CCN(CC(=O)O)CC1; 1Nal = N[C@@H](Cc1cccc2ccccc12)C(=O)O; TBMB = c1c(C[*:1])cc(C[*:3])cc1C[*:2]; Palmitoyl = CCCCCCCCCCCCCCCC(=O)*; Tle = CC(C)(C)[C@H](N)C(=O)O; βAla = NCCC(=O)O; Sar = CNCC(=O)O

How the values were obtained:
MT1-MMP hemopexin domain = MT1-MMP hemopexin domain (Homo sapiens, UniProt P50281); assay: Fluorescence polarization direct binding / competition assay to MT1-MMP hemopexin domain
Protocol: Direct Binding Fluorescence Polarization or Anisotropy Assays are performed by titrating a constant concentration of fluorescent tracer (here, the fluoresceinated bicyclic peptide to be studied) with its binding partner (here, the MT1-MMP hemopexin domain). As the concentration of binding partner increases during the titration, the polarization signal changes in proportion to the fraction of bound and unbound material. This allows determination of […] (Kd) quantitatively. Assay data can be fit using standard ligand binding equations.
Typically, concentrations of the tracer are ideally well below the Kd of the tracer: titrant pair, and concentrations chosen are usually at ˜1 nM or less. The titrant (binding partner) concentration is varied from 0.1 nM up to typically 5 μM. The range is chosen such that the maximum change in fluorescent polarization can be observed. Buffers employed are phosphate buffered saline in the presence of 0.01% Tween. Experiments were run in black 384 well low-bind/low volume plates (Corning 3820), and the fluorescent polarization signal was measured using a BMG Pherastar FS plate reader. Fluorescent tracers referred to in the text are bicyclic peptides that have been fluoresceinated using 5,6-carboxyfluorescein. Fluoresceination may be performed on the N-terminal amino group of the peptide, which is separated from the bicycle core sequence by a sarcosine spacer (usually Sar10 (SEQ ID NO: 73)). This can be done during Fmoc solid phase synthesis or post-synthetically (after cyclization with the molecular scaffold reagent and purification) if the N-terminal amino group is unique to the peptide. Fluoresceination can also be performed on the C-terminus, usually on a Lysine introduced as the first C-terminal residue, which is then separated from the bicycle core sequence by a sarcosine spacer (usually Sar6 (SEQ ID NO: 69)). Thus, N-terminal tracers can have a molecular format described as Fluo-Ala-Sar10-A (SEQ ID NO: 72) (BicycleCoreSequence), and (BicycleCoreSequence)-A-Sar6-K (Fluo) (SEQ ID NO: 67) for a C-terminally fluoresceinated construct.
Fluorescent tracers used in the Examples are A-(17-69)-A-Sar6-K (Fluo) (SEQ ID NO: 67), A-(17-69-07)-A-Sar6-K (Fluo) (SEQ ID NO: 67), and A-(17-69-12)-A-Sar6-K (Fluo) (SEQ ID NO: 67). Due to the acidic nature of the 17-69 fluorescent peptides, they were typically prepared as concentrated DMSO stocks, from which dilution were prepared in 100 mM Tris pH 8 buffer.
Due to their high affinities to the MT1-MMP Hemopexin domain (PEX), the fluoresceinated derivatives of 17-69-07 and 17-69-12 (denoted as 17-69-07-N040 and 17-69-12-N005, respectively) can be used for competition experiments (using FP for detection). […] Dissociation of the complex can be measured quantitatively, and the Kd of the competitor (titrant) to the target protein determined. The advantage of the competition method is that the affinities of non-fluoresceinated bicyclic peptides can be determined accurately and rapidly.
Subsequently, the non-fluorescent competitor bicyclic peptide (usually just the bicycle core sequence) is titrated, such that it displaces the fluorescent tracer from the target protein. The displacement of the tracer is measured and associated with a drop in fluorescence polarization. The drop in fluorescence polarization is proportional to the fraction of target protein bound with the non-fluorescent titrant, and thus is a measure of the affinity of titrant to target protein. […]

HT1080 tumor = assay: Organ distribution of 177Lu-labelled peptides in HT1080 xenograft mice; assay type: in vivo, BALB/c nu/nu mice
Protocol: (§1) General procedure for radiolabelling with Lu-177.
(§2) • 50 μL 0.25 M Na-Acetate buffer pH 5.2+0.1% Tween 20; • 10 μL [Lu-177]LuCl3 in 0.05 M HCl; and • 2 μL of the diluted peptide (2 nmols). […]
(§3) Organ distribution studies, general method: For organ distribution, the respective dose is prepared by dilution of the labeling reaction mixture in injection buffer (0.25 M Na-Acetate pH 7+0.05% Tween20). The ^177Lu-radiolabeled peptide was injected via the tail vein of the nu/nu mice (50 kBq per mouse), transplanted with the respective cell line. At indicated time points after injection the animals were sacrificed. Blood, heart, lung, spleen, liver, kidney, muscle, brain, femur, and the tumor were dissected, blotted dry, and weighed. The radioactivity was measured with a γ-counter (CobraII; Canberra Packard) along with a sample of the injection solution to calculate the percentage injected dose per gram of tissue (% ID/g).
(§4) The γ- and β-emitter ^177LuCl3 (NEZ307D, Perkin Elmer, in 0.04 M HCl), with a t1/2 of 6.7 days was used for both in vivo biodistribution and internalization studies. Labeling reactions were performed by adding 10 μL ^177LuCl3 (˜10 MBq) in 50 mM HCl, 2 μL of the diluted peptide (1 mM solution in 50 mM HEPES buffer pH 7+0.1% Tween 20 diluted from a 10 mM DMSO stock) to 50 μL 50 mM HEPES buffer pH 7 supplemented with 0.1% Tween 20. The reaction mixture was incubated at 98° C. for 10 minutes. The radiochemical yield (RCY) was determined using high performance liquid chromatography (HPLC) system equipped with a Latek P402 (Latek, Eppelheim, Germany), a HITACHI variable UV detector (absorbance was measured at 214 and 254 nm) and a gamma detector (Bioscan, WA, USA), using a Chromolith RP-18 column (100×4.6 mm; Merck). The analytical HPLC run was performed at 4 mL/min, using a linear A (0.1% trifluoroacetic acid (TFA) in water) to B (0.1% TFA in acetonitrile) gradient (0% B to 100% B in 6 min). Thin-layer chromatography was performed in parallel to confirm the results of the radio-HPLC. The RCY was generally >95%, and thus, the output of labelling reactions was directly diluted with the appropriate buffer and further unlabeled peptide if required, to use in subsequent experiments.
(§5) 5×10^6 cells of HT1080 were subcutaneously inoculated into the right trunk of male 6-week-old BALB/c nu/nu mice (Charles River Laboratories). The tumors were grown for approximately 1 week, to a maximum size of ˜200 mm^3. Respective doses were prepared by mixing a fixed quantity of 5 pmoles ^177Lu labelled peptides (at approx. 50 kBq) with different quantities of non-labelled peptide (derived from 1 mM stock solution in 0.25 M sodium acetate pH 7+0.05% Tween20) in 100 μL injection buffer (0.25 M sodium acetate pH 7+0.05% Tween20). 3 animals were used per dose and timepoint. Radiolabelled peptide solutions were injected via the tail vein, followed by sacrifice at various time points. Organs of interest (blood, heart, lung, spleen, liver, kidney, muscle, small intestine, brain, HT1080 tumor) were dissected, blotted dry, and weighed. The radioactivity was measured using a gamma counter and calculated as % ID/g.

[1] = as above; assay type: in vivo, BALB/c nu/nu mice; settings: male, BALB/c nu/nu, iv, total radioactivity
Protocol: as §1, §2, §3, §4, §5

SMILES | Kd (MT1-MMP hemopexin domain) | signals in spleen, liver and small intestine (HT1080 tumor; 177Lu-labelled, 48 hr p.i.) | tissue to tissue ratio at 6 h ([1]; HT1080 tumor / blood, 750 pmole/mouse, 6 hrs, read-out: tumour to blood signal ratio) | tissue to tissue ratio at 48 h ([1]; HT1080 tumor / blood, 750 pmole/mouse, 48 hrs, read-out: tumour to blood signal ratio) | tissue uptake at 2 h ([1]; HT1080 tumor, 750 pmole/mouse, 2 h p.i., read-out: tumour accumulation) | tissue uptake at 6 h ([1]; HT1080 tumor, 750 pmole/mouse, 6 h p.i., read-out: tumor uptake (maximum)) | tissue uptake at 48 h ([1]; HT1080 tumor, 177Lu-labelled, 48 hr p.i., 750-1000 pmole/mouse, read-out: tumour signal) | tissue uptake at 48 h ([1]; mouse, HT1080 tumor, 750 pmoles injected dose, 48 h p.i., read-out: tumor accumulation in HT1080 xenografts) | blocking of tumor uptake at a dose of 500 pmoles (HT1080 tumor; 1 h post injection) | blocking of tumor uptake using 5 nmoles (HT1080 tumor; 1 h post injection) | signal in the tumor compared to I-23 (HT1080 tumor; 1 h post injection) | tumor uptake compared to 17-69-07-N144 (HT1080 tumor; 1 h post injection) | tissue uptake at 1 h ([1]; mouse, HT1080 tumor, 1 h p.i. of 150 pmoles)
CCCCCCCCCCCCCCCC(=O)NCCC(=O)N(C)CC(=O)N(C)CC(=O)N(C)CC(=O)N(C)CC(=O)N(C)CC(=O)N[C@@H](CCCCNC(=O)CN1CCN(CC(=O)O)CCN(CC(=O)O)CCN(CC(=O)O)CC1)C(=O)N(C)CC(=O)N(C)CC(=O)N(C)CC(=O)N(C)CC(=O)N(C)CC(=O)N(C)CC(=O)N(C)CC(=O)N(C)CC(=O)N(C)CC(=O)N(C)CC(=O)N[C@@H](C)C(=O)N[C@H]1CSCc2cc3cc(c2)CSC[C@H](NC(=O)[C@@H](C)NC(=O)[C@H](Cc2cccc4ccccc24)NC(=O)[C@H](CCC(=O)O)NC(=O)[C@H](CC(N)=O)NC(=O)[C@@H](C)NC1=O)C(=O)N[C@@H](CCC(=O)O)C(=O)N[C@@H](CC(=O)O)C(=O)N[C@@H](Cc1ccccc1)C(=O)N[C@@H](Cc1ccc(O)cc1)C(=O)N[C@@H](CC(=O)O)C(=O)N[C@@H](C(C)(C)C)C(=O)N[C@H](C(N)=O)CSC3 [I-25] ({Palmitoyl-βAla}-[Sar][Sar][Sar][Sar][Sar]K(DOTA)[Sar][Sar][Sar][Sar][Sar][Sar][Sar][Sar][Sar][Sar]AC[dA]NE[1Nal][dA]CEDFYD[Tle]C-NH2; linker 18-24-31 via TBMB) | 2.25 ± 0.5 nM | < 4.5% | 19 | 97 | 25 ± 1.61 %ID/g | 35.9 ± 1.11 %ID/g | ~26 %ID/g | 24.1 ± 2.5 %ID/g |  |  |  |  | 
C[C@H](NC(=O)CN(C)C(=O)CN(C)C(=O)CN(C)C(=O)CN(C)C(=O)CN(C)C(=O)CN(C)C(=O)CN(C)C(=O)CN(C)C(=O)CN(C)C(=O)CN(C)C(=O)CCNC(=O)CN1CCN(CC(=O)O)CCN(CC(=O)O)CCN(CC(=O)O)CC1)C(=O)N[C@H]1CSCc2cc3cc(c2)CSC[C@H](NC(=O)[C@@H](C)NC(=O)[C@H](Cc2cccc4ccccc24)NC(=O)[C@H](CCC(=O)O)NC(=O)[C@H](CC(N)=O)NC(=O)[C@@H](C)NC1=O)C(=O)N[C@@H](CCC(=O)O)C(=O)N[C@@H](CC(=O)O)C(=O)N[C@@H](Cc1ccccc1)C(=O)N[C@@H](Cc1ccc(O)cc1)C(=O)N[C@@H](CC(=O)O)C(=O)N[C@@H](C(C)(C)C)C(=O)N[C@H](C(N)=O)CSC3 [I-24] ({DOTA-βAla}-[Sar][Sar][Sar][Sar][Sar][Sar][Sar][Sar][Sar][Sar]AC[dA]NE[1Nal][dA]CEDFYD[Tle]C-NH2; linker 12-18-25 via TBMB) | 1.37 ± 0.53 nM |  |  |  |  |  |  |  | slightly blocked | nearly completely blocked | slightly lower | significantly greater | 7.04 ± 2.83 %ID/g
